Measurements taken from PMC6089974.

B1: TmGalA (Thermotoga maritima MSB8) (protein)
chain: MEIFGKTFREGRFVLKEKNFTVEFAVEKIHLGWKISGRVKGSPGRLEVLRTKAPEKVLVNNWQSWGPCRVVDAFSFKPPEIDPNWRYTASVVPDVLERNLQSDYFVAEEGKVYGFLSSKIAHPFFAVEDGELVAYLEYFDVEFDDFVPLEPLVVLEDPNTPLLLEKYAELVGMENNARVPKHTPTGWCSWYHYFLDLTWEETLKNLKLAKNFPFEVFQIDDAYEKDIGDWLVTRGDFPSVEEMAKVIAENGFIPGIWTAPFSVSETSDVFNEHPDWVVKENGEPKMAYRNWNKKIYALDLSKDEVLNWLFDLFSSLRKMGYRYFKIDFLFAGAVPGERKKNITPIQAFRKGIETIRKAVGEDSFILGCGSPLLPAVGCVDGMRIGPDTAPFWGEHIEDNGAPAARWALRNAITRYFMHDRFWLNDPDCLILREEKTDLTQKEKELYSYTCGVLDNMIIESDDLSLVRDHGKKVLKETLELLGGRPRVQNIMSEDLRYEIVSSGTLSGNVKIVVDLNSREYHLEKEGKSSLKKRVVKREDGRNFYFYEEGERE
B2: TmGalA (Thermotoga maritima MSB8; D387A) (protein)
chain: MEIFGKTFREGRFVLKEKNFTVEFAVEKIHLGWKISGRVKGSPGRLEVLRTKAPEKVLVNNWQSWGPCRVVDAFSFKPPEIDPNWRYTASVVPDVLERNLQSDYFVAEEGKVYGFLSSKIAHPFFAVEDGELVAYLEYFDVEFDDFVPLEPLVVLEDPNTPLLLEKYAELVGMENNARVPKHTPTGWCSWYHYFLDLTWEETLKNLKLAKNFPFEVFQIDDAYEKDIGDWLVTRGDFPSVEEMAKVIAENGFIPGIWTAPFSVSETSDVFNEHPDWVVKENGEPKMAYRNWNKKIYALDLSKDEVLNWLFDLFSSLRKMGYRYFKIDFLFAGAVPGERKKNITPIQAFRKGIETIRKAVGEDSFILGCGSPLLPAVGCVDGMRIGPATAPFWGEHIEDNGAPAARWALRNAITRYFMHDRFWLNDPDCLILREEKTDLTQKEKELYSYTCGVLDNMIIESDDLSLVRDHGKKVLKETLELLGGRPRVQNIMSEDLRYEIVSSGTLSGNVKIVVDLNSREYHLEKEGKSSLKKRVVKREDGRNFYFYEEGERE

What was measured:
Assay in all cases: purified protein
purified protein [1] = substrate: O=[N+]([O-])c1ccc(O[C@H]2O[C@H](CO)[C@H](O)[C@H](O)[C@H]2F)c([N+](=O)[O-])c1; details: 50 mM HEPES pH 7.4, 37 °C, printed Km does not agree with printed kcat and kcat/Km (possible misprint)
purified protein [2] = substrate: O=[N+]([O-])c1ccc(O[C@H]2C=C(CO)[C@H](O)[C@H](O)[C@H]2O)c([N+](=O)[O-])c1; details: 50 mM HEPES pH 7.4, 37 °C, covalent intermediate slowly hydrolysed, 3b equilibrates in D2O with its C-2 aryloxy isomer (~2:1)
purified protein [3] = substrate: O=[N+]([O-])c1ccc(O[C@H]2C=C(CO)[C@H](O)[C@H](O)[C@H]2F)c([N+](=O)[O-])c1; details: 50 mM HEPES pH 7.4, 37 °C, covalent intermediate slowly hydrolysed, apparent binding constant
purified protein [4] = substrate: O=[N+]([O-])c1ccc(O[C@H]2O[C@H](CO)[C@H](O)[C@H](O)[C@H]2O)cc1; details: 50 mM HEPES pH 7.4, 37 °C, acid/base mutant

Protein | Km (purified protein [1]) | Km (purified protein [2]) | Km (purified protein [3]) | kcat (purified protein [3]) | kcat/Km (purified protein [3]) | Km (purified protein [4]) | kcat (purified protein [4]) | kcat/Km (purified protein [4])
B1 | 253 ± 8 µM | 1.68 ± 0.14 µM | 4.1 ± 0.9 µM | 0.000229 ± 1.1e-05 s⁻¹ | 56 ± 13 M⁻¹ s⁻¹ | – | – | –
B2 | – | – | – | – | – | 184 ± 7 µM | 0.036 s⁻¹ | 196 M⁻¹ s⁻¹
